Assay results published in patent publication US20240343810A1 (published 2024).

T1: human ICOS-mFc (Chimerigen) (human, UniProt Q9Y6W8 21-140)
T1 construct: Bought; also called recombinant human ICOS protein; hICOS; not shown: mouse Fc of the bought fusion
T1 sequence: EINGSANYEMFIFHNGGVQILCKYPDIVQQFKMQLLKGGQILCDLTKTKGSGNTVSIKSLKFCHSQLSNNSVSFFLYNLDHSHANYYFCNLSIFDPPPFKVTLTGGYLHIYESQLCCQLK

T2: mouse ICOS-mFc (Chimerigen) (mouse, UniProt Q9WVS0 21-141, limits assumed)
T2 construct: Bought; also called recombinant mouse ICOS protein; mICOS; not shown: mouse Fc of the bought fusion
T2 sequence: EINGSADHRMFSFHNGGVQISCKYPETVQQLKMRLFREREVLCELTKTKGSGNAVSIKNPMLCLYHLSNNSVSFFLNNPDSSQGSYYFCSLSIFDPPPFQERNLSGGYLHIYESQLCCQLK

T3: human ICOS expressed on cells (human, UniProt Q9Y6W8 21-199)
T3 construct: also called CHO-S cells transfected with human ICOS; hICOS
T3 sequence: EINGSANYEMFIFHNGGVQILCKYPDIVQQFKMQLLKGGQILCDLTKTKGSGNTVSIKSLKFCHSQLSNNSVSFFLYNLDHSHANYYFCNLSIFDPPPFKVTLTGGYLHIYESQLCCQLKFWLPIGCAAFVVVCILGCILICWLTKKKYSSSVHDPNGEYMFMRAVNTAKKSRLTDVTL

T4: mouse ICOS expressed on CHO cells (mouse, UniProt Q9WVS0 21-200)
T4 construct: also called CHO-S cells transfected with mouse ICOS; mICOS
T4 sequence (looked up): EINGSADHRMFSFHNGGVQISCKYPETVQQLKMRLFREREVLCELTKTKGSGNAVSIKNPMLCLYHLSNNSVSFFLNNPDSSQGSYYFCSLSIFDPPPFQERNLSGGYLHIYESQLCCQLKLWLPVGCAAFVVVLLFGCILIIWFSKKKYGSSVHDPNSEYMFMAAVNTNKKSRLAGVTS


Key:
[1] = biological target: FcγRIIIa on effector cells (Jurkat NFAT luciferase v-variant effector cells, Promega) (human, UniProt P08637 17-254); experiment: cell-based or functional assay
[2] = biological target: T5, human PD-L1 expressed on cells (human, UniProt Q9NZQ7 19-290); experiment: Flow cytometry on CHO human PD-L1 cells
T5 construct: also called CHO-S cells transfected with the cDNA coding for human PD-L1; CHO human PD-L1

[3] = biological target: T1, human ICOS-mFc (Chimerigen); experiment: DELFIA ELISA on coated human ICOS-mFc, mean
Protocol: (§1) Recombinant ICOS proteins, human ICOS-mFc or mouse ICOS-mFc (Chimerigen) were diluted in 1×PBS and added to Black Hi-bind plates (Griener) at 1 μg/ml, 50 μl/well. Recombinant PD-L1 proteins, human PD-L1-Flag-His or mouse-His were diluted in 1×PBS and added to Black Hi-bind plates (Griener) at 4 μg/ml, 50 μl/well. The plates were left overnight at 4° C. The next day plates were washed 3× with 300 μl/well of 1×PBS+0.1% Tween and blocked with 200 ul/well of 1×PBS+1% BSA blocking buffer for 1 hr at RT on a plate shaker. Plates were washed 3× with 300 μl/well of 1×PBS+0.1% Tween.
(§2) However, human-PD-L1 mAb² antibodies were diluted in 1×PBS+0.1% BSA buffer and diluted 1 in 2 from a starting working concentration of 0.066 μM over an 11 point titration. Titrated antibodies were added to the plates, 50 μl/well and left to incubate for 1 hr at R.T on a plate shaker. Plates were washed 3× with 300 μl/well of 1×PBS+0.1% Tween.
(§3) DELFIA® Eu-labelled Anti-human IgG (Perkin-Elmer) was diluted 1:500 in DELFIA Assay buffer (Perkin-Elmer) and added to the assay plate (50 μl/well), left to incubate for 1 hr at RT on a plate shaker. […] After incubation, assay was read on Envision plate reader (Perkin Elmer), Time-resolved fluorescence (TRF) was measured at 615 nm.

[4] = biological target: T2, mouse ICOS-mFc (Chimerigen); experiment: DELFIA ELISA on coated mouse ICOS-mFc, mean
Protocol: as §1, §2, §3

[5] = biological target: T3, human ICOS expressed on cells; experiment: Flow cytometry on CHO-S human ICOS cells, anti-human IgG AF647, N=2
Protocol: (§4) CHO—S cells transfected with either human ICOS or mouse ICOS were resuspended in FACS buffer (PBS+1% w/v BSA+0.1% w/v sodium azide) and transferred to a 96-well V-bottom plate (Greiner) at a density of 1×10⁵ cells per well. mAb and mAb² were titrated in FACS buffer, 1 in 3 dilution across 11 points from a starting working concentration of 400 nM. Plates were centrifuged at 300×g for 3 minutes, supernatant discarded and 50 μL mAb or mAb² solution were added to cells and incubated at 4° C. for 1 hour. Cells were washed with 150 μL of PBS and centrifuged at 300×g for 3 minutes, supernatant was discarded and cell pellet resuspended in 150 μL PBS added. This wash step was repeated twice. Bound mAb or mAb² was detected by addition of 50 μL of anti-human 647 (Jackson ImmunoResearch) diluted to 3 ug/ml in FACS buffer. Cells were incubated for 1 hour at 4° C. in the dark. Cells were washed with 150 μL of PBS and centrifuged at 300 g for 3 minutes, supernatant was discarded and cell pellet resuspended in 150 μL PBS added. This wash step was repeated twice. Cells were fixed with 25 μL 4% v/v paraformaldehyde, incubated for 20 minutes at 4° C., cells were pelleted by centrifugation at 300×g and the supernatant discarded. […] AlexaFluor 647 signal intensity (geometric mean) was measured by flow cytometry using a Beckman Coulter CytoFLEX instrument.

[6] = biological target: T4, mouse ICOS expressed on CHO cells; experiment: Flow cytometry on CHO-S mouse ICOS cells, anti-human IgG AF647, N=1
Protocol: as §4

[7] = biological target: T4, mouse ICOS expressed on CHO cells; experiment: Flow cytometry on CHO-S mouse ICOS cells, anti-human IgG AF647, N=2
Protocol: as §4

Sequence of FcγRIIIa on effector cells (Jurkat NFAT luciferase v-variant effector cells, Promega) (P08637 other isoform, or with tags, fused parts or gaps mutant limits assumed): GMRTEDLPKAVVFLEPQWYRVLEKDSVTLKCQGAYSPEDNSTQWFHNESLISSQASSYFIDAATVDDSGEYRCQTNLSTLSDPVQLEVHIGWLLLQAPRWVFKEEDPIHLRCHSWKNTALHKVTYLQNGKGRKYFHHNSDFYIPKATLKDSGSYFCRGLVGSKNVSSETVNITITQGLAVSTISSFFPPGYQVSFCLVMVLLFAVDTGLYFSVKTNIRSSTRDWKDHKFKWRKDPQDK
T5 sequence (Q9NZQ7 19-290 limits assumed): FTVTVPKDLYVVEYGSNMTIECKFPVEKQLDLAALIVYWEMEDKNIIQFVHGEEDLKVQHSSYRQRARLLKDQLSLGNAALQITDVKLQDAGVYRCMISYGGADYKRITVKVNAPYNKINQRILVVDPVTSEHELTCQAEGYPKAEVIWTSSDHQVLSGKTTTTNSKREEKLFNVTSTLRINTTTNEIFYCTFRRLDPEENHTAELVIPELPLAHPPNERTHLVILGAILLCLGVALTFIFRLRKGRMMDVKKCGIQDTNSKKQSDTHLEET

EC50 of luciferase fold of induction, CHO human ICOS target cells, N=1 [1] | EC50 of luciferase fold of induction, CHO human ICOS target cells, N=2 [1] | EC50 of luciferase fold of induction, CHO human ICOS target cells, N=3 [1] | EC50 of luciferase fold of induction, CHO human ICOS target cells, mean [1] | EC50 of luciferase fold of induction, CHO mouse ICOS target cells, N=1 [1] | EC50 of luciferase fold of induction, CHO mouse ICOS target cells, N=2 [1] | EC50 of luciferase fold of induction, CHO mouse ICOS target cells, N=3 [1] | EC50 of luciferase fold of induction, CHO mouse ICOS target cells, mean [1] | binding result [2] | EC50 [3] | EC50 [4] | EC50 [5] | EC50 [6] | EC50 [7] | Binder
0.326 nM | 0.477 nM | 0.24 nM | 0.347 nM | 0.508 nM | 0.754 nM | 0.703 nM | 0.655 nM | no binding (tested: 198 nM) | 0.751 nM | 0.38 nM | 4.89 nM | 6.8 nM | 2.19 nM | STIM003 (antibody, human IgG1, kappa, Anti-ICOS monospecific antibody, tested as human IgG1; also called STIM003 monoclonal IgG1 antibody) heavy: not shown light: EIVLTQSPGTLSLSPGERATLSCRASQSVSRSYLAWYQQKRGQAPRLLIYGASSRATGIPDRFSGDGSGTDFTLSISRLEPEDFAVYYCHQYDMSPFTFGPGTKVDIKRTVAAPSVFIFPPSDEQLKSGTASVVCLLNNFYPREAKVQWKVDNALQSGNSQESVTEQDSKDSTYSLSSTLTLSKADYEKHKVYACEVTHQGLSSPVTKSFNRGEC
0.456 nM | 0.247 nM | 0.147 nM | 0.283 nM | 0.479 nM | 0.534 nM | 0.579 nM | 0.53 nM | no binding (tested: 198 nM) | 28.9 nM | 11.4 nM | 13.8 nM | 25.7 nM | 5.06 nM | STIM001 (antibody, human IgG1, kappa, Anti-ICOS monospecific antibody, tested as human IgG1; also called STIM001 monoclonal IgG1 antibody) heavy: not shown light: DIVMTQSPLSLPVTPGEPASISCRSSQSLLHSNEYNYLDWYLQKPGQSPQLLIFLGSNRASGVPDRFSGSGSGTDFTLKITRVEAEDVGIYYCMQSLQTPLTFGGGTKVEIKRTVAAPSVFIFPPSDEQLKSGTASVVCLLNNFYPREAKVQWKVDNALQSGNSQESVTEQDSKDSTYSLSSTLTLSKADYEKHKVYACEVTHQGLSSPVTKSFNRGEC
